Experimental data published in US20060286609A1 (BIOCHECK, published 2006).

T1: Mouse Id1: Histidine (mouse, UniProt P20067-2 1-148)
T1 construct: E. coli fusion protein (vector pGW07); also called m-Id1-His; not shown: His-tag
T1 sequence: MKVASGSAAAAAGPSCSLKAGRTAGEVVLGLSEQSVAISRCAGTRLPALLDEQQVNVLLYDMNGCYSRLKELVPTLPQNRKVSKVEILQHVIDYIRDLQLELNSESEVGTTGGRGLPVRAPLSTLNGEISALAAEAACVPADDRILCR

T2: Human Id2: Histidine (human, UniProt Q02363 1-134, limits assumed)
T2 construct: E. coli fusion protein (vector pGW07); also called h-Id2: His; not shown: His-tag
T2 sequence (looked up): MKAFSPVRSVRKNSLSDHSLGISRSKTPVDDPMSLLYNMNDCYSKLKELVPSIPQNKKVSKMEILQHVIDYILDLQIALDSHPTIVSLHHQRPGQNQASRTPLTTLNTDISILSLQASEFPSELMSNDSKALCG

T3: Human Id3: Histidine (human, UniProt Q02535 1-119, limits assumed)
T3 construct: E. coli fusion protein (vector pGW07); also called h-Id3: His; not shown: His-tag
T3 sequence (looked up): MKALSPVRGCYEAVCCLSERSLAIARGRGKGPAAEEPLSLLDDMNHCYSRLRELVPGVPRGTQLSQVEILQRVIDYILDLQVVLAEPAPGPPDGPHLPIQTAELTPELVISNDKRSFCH

B1: rabbit monoclonal anti-mouse Id1, clone #BCH-1/#37-2 (antibody, V domains shown)
VH: QSVEESGGRLVTPGTPLTLTCKVSGFDINSYAMDWFRQAPGKGLEWIGMMSTRGNTYYTSWAKGRFTISKTSSTTVDLKMTSLTTEDTATYFCARGGLWGPGTLVTVSS
VL: RVLTQTASPVSAAVGGTVTINCQASQSVYNGNRLGWYQLKPGQSPKELIHDASTLASGVPSRFRGSGSGTQFTLTINDVQCDDAATYYCVGSYACSTGDCNVFGGGTEVVVK
notes: Rabbit IgG from hybridoma, Protein G purified; also called m Id1 MoAb 37-2; Rabbit Monoclonal Anti-Mouse Id1 (#37-2)

Key:
[1] = biological target: Human Id1: Histidine (human) (UniProt P41134); experiment: sandwich ELISA, 5-3-coated wells, human Id1:His 0 ng/ml (blank), detected with rabbit polyclonal B-5133-HRP
Mouse Id1: Histidine [2] = biological target: T1, Mouse Id1: Histidine; experiment: ELISA, coated antigen, Ab 0.500 ug/ml
[3] = biological target: Human Id1: Histidine (human) (UniProt P41134); experiment: sandwich ELISA, 5-3-coated wells, human Id1:His 10.0 ng/ml, detected with rabbit polyclonal B-5133-HRP
[4] = biological target: Human Id1: Histidine (human) (UniProt P41134); experiment: sandwich ELISA, 5-3-coated wells, human Id1:His 0.5 ng/ml, detected with rabbit polyclonal B-5133-HRP
[5] = biological target: Human Id1: Histidine (human) (UniProt P41134); experiment: ELISA, coated antigen, Ab 0 ug/ml (blank)
[6] = biological target: Human Id1: Histidine (human) (UniProt P41134); experiment: ELISA, coated antigen, Ab 0.10 ug/ml
Mouse Id1: Histidine [7] = biological target: T1, Mouse Id1: Histidine; experiment: ELISA, coated antigen, Ab 0.50 ug/ml
Experimental: (§1) Incubate plates at 2-8° C. overnight (16-24 hours). [0145] 11. Shake off the BSA solution. [0146] 12. Dispense 250 μL of 2.5% sucrose solution into each well. [0147] 13. Incubate plates at 2-8° C. for 4 hours. [0148] 14. Shake off sucrose solution. [0149] 15. Dry in vacuum at room temperature overnight. Screening Method [0150] 1. Dispense 100 μL of antibody diluent, diluted rabbit polyclonal anti-Id1 into appropriate wells. […] 2. Incubate at room temperature with mechanical shaking at 750 rpm for 90 minutes. [0152] 3. Remove the incubation mixture by flicking plate content into an appropriate waste container, followed by rinsing the wells 5 times with distilled water. […] 4. Strike the wells sharply onto absorbent paper or paper towels to remove all residual water droplets. [0154] 5. Dispense 100 μL of Goat Anti-Rabbit IgG-HRP Conjugate Reagent into each well. Gently mix for 5 seconds. [0155] 6. Incubate at room temperature with mechanical shaking at 750 rpm for 90 minutes. […] 7. Repeat procedures 3 and 4. [0157] 8. Dispense 100 μL of TMB Reagent into each well. Gently mix for 5 seconds. [0158] 9. Incubate at room temperature with mechanical shaking at 750 rpm for 20 minutes. [0159] 10. Add 100 μL of Stop Solution (1N HCl) into each well. [0160] 11. Gently mix for 10 seconds to ensure a complete mixing. […] 12. Read optical density (absorbance) at 450 nm. Results from this assay were used to select the rabbit sera with the highest antibodies titer that selectively reacts with mouse Id1 or human Id1 or both.
(§2) A comparison was carried out between the reactivity of the rabbit monoclonal anti-mouse Id1, clone #BCH-1/#37-2, of this invention and the mouse monoclonal anti-mouse/human Id1 from BD Pharmingen with the following antigens prepared in Example 5: mouse Id1:His, human Id1:His, human Id2:His, human Id3:His, and GST. These antigens and protein were used to coat the wells.
(§3) Materials and methods were those described in Example 9 except (a) Pharmingen's mouse monoclonal anti-mouse Id1 was used in addition to the rabbit monoclonal anti-mouse Id1 (Example 10), and (b) goat anti-mouse IgG-HRP conjugate was used to process the wells treated with the Pharmingen monoclonal antibody and polyclonal goat anti-rabbit IgG-HRP conjugate was used to process wells treated with rabbit monoclonal anti-mouse Id1.

Human Id2: Histidine [8] = biological target: T2, Human Id2: Histidine; experiment: ELISA, coated antigen, Ab 0.50 ug/ml
Experimental: as §1, §2, §3

[9] = biological target: T4, glutathione S-transferase (GST) (UniProt P08515 1-218 = GST); experiment: ELISA, coated antigen, Ab 0.50 ug/ml
T4 construct: Coated on wells as control for the fusion partner of the immunogen
Experimental: as §1, §2, §3

Human Id3: Histidine [10] = biological target: T3, Human Id3: Histidine; experiment: ELISA, coated antigen, Ab 0.50 ug/ml
Experimental: as §1, §2, §3

Mouse Id1: Histidine [11] = biological target: T1, Mouse Id1: Histidine; experiment: ELISA, coated antigen, Ab 0.10 ug/ml
Experimental: as §1, §2, §3

Human Id2: Histidine [12] = biological target: T2, Human Id2: Histidine; experiment: ELISA, coated antigen, Ab 0.10 ug/ml
Experimental: as §1, §2, §3

[13] = biological target: T4, glutathione S-transferase (GST); experiment: ELISA, coated antigen, Ab 0.10 ug/ml
Experimental: as §1, §2, §3

Human Id3: Histidine [14] = biological target: T3, Human Id3: Histidine; experiment: ELISA, coated antigen, Ab 0.10 ug/ml
Experimental: as §1, §2, §3

Mouse Id1: Histidine [15] = biological target: T1, Mouse Id1: Histidine; experiment: ELISA, coated antigen, Ab 5.00 ug/ml
Experimental: as §1, §2, §3

Human Id2: Histidine [16] = biological target: T2, Human Id2: Histidine; experiment: ELISA, coated antigen, Ab 5.00 ug/ml
Experimental: as §1, §2, §3

[17] = biological target: T4, glutathione S-transferase (GST); experiment: ELISA, coated antigen, Ab 5.00 ug/ml
Experimental: as §1, §2, §3

Human Id3: Histidine [18] = biological target: T3, Human Id3: Histidine; experiment: ELISA, coated antigen, Ab 5.00 ug/ml
Experimental: as §1, §2, §3

T4 sequence (P08515 whole entry, the tested form may be a part): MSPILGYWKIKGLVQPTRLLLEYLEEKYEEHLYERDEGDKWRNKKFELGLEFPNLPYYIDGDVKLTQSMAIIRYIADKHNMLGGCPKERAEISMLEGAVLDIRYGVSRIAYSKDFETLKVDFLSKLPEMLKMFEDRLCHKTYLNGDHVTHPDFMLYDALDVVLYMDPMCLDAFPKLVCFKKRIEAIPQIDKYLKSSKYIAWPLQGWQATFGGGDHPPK
Chain of Human Id1: Histidine (human) (P41134 whole entry): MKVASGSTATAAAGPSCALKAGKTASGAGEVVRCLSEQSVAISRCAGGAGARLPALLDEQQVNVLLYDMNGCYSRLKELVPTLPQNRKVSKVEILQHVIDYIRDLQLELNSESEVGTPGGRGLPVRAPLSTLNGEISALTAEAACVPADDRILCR

Molecule | A450 [1] | A450 (Mouse Id1: Histidine [2]) | A450 [3] | A450 [4] | A450 [5] | A450 [6] | A450 (Mouse Id1: Histidine [7]) | A450 (Human Id2: Histidine [8]) | A450 [9] | A450 (Human Id3: Histidine [10]) | A450 (Mouse Id1: Histidine [11]) | A450 (Human Id2: Histidine [12]) | A450 [13] | A450 (Human Id3: Histidine [14]) | A450 (Mouse Id1: Histidine [15]) | A450 (Human Id2: Histidine [16]) | A450 [17] | A450 (Human Id3: Histidine [18])
rabbit monoclonal anti-human Id1, clone #BCH-2/#5-3 (antibody) | 0.046 A450 | 0.151 A450 | 0.815 A450 | 0.085 A450 | – | – | – | – | – | – | – | – | – | – | – | – | – | –
rabbit monoclonal anti-mouse/human Id1, clone #BCH-1/#195-14 (antibody) | – | 2.79 A450 | – | – | – | – | – | – | – | – | – | – | – | – | – | – | – | –
B1 | – | – | – | – | 0.047 A450 | 0.061 A450 | 2.46 A450 | 0.052 A450 | 0.053 A450 | 0.052 A450 | 1.29 A450 | 0.049 A450 | 0.047 A450 | 0.048 A450 | 3.26 A450 | 0.083 A450 | 0.086 A450 | 0.091 A450
